Source: paper PMC4432389, “Cytosolic Hsp70 and co-chaperones constitute a novel system for tRNA import into the nucleus” (eLife, 2015)

Legend:
Ssa2p = target: T1, Ssa2p (S. cerevisiae, UniProt P10592 1-639); assay: pull-down; 200 pmol GST or GST-nucleoporin fusion and 40 pmol Ssa1p or Ssa2p incubated with Glutathione Sepharose in Buffer 88 (20 mM HEPES-KOH pH 6.8, 2 mM Mg(OAc)2, 150 mM KOAc) with 0.10% wt/vol Tween-20, 4°C, 2 hr; eluted with 10 mM reduced glutathione; Ssa proteins detected by Western blotting with anti-Ssa protein antibodies; settings: both partners purified
T1 construct: Ssa2p, major cytosolic Hsp70 of S. cerevisiae, full length (residues 1-639 by the domain constructs); Expressed from a pCold2 vector with a C-terminal His6 tag; also called Ssa2p-His6; Ssa proteins; source: E. coli BL21(DE3) co-expressing trigger factor, purified (Ni-NTA agarose)

Ssa1p = target: T2, Ssa1p (S. cerevisiae, UniProt P10591 1-642); assay: as above; settings: both partners purified
T2 construct: Ssa1p, cytosolic Hsp70 of S. cerevisiae, full length (residues 1-642 by the domain constructs); Expressed from a pCold2 vector with a C-terminal His6 tag; also called Ssa1p-His6; Ssa proteins; source: E. coli BL21(DE3) co-expressing trigger factor, purified (Ni-NTA agarose)
T2 sequence (P10591 whole entry, the tested form may be a part): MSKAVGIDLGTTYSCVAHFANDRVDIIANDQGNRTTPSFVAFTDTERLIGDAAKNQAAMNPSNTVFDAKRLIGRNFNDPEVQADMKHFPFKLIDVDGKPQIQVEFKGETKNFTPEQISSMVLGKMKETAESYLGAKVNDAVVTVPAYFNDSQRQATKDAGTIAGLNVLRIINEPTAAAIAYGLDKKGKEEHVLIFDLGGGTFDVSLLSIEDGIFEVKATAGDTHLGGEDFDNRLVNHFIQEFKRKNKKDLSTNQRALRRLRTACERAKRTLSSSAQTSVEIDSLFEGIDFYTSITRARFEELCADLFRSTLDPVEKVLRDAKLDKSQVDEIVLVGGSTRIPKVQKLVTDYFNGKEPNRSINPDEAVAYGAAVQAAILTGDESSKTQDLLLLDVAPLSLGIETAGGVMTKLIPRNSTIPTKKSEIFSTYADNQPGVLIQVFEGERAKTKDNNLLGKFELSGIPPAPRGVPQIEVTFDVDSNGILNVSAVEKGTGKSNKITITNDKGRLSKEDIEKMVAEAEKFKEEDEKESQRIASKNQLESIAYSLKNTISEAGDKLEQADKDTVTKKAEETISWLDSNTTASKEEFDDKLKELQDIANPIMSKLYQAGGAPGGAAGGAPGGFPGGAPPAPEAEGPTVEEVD

T1 sequence (P10592 whole entry, the tested form may be a part): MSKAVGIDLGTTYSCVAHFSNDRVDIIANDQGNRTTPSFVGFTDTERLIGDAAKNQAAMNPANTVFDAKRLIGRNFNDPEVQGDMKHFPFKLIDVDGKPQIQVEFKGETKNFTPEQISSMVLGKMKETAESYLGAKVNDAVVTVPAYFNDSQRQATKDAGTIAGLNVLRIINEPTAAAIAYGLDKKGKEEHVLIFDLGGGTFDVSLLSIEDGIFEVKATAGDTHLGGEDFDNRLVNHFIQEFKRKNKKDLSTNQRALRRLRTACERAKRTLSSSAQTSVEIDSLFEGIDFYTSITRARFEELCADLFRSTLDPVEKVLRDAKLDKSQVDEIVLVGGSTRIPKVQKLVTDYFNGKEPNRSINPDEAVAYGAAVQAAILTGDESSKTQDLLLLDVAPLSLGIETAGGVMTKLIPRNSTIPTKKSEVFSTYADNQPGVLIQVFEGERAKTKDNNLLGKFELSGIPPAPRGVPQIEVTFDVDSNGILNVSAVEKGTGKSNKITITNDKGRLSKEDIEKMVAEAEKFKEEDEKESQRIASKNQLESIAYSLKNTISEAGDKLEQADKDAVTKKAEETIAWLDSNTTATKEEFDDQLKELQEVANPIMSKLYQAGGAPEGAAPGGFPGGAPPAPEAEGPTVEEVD

- binding result (Ssa2p): binds
- binding result (Ssa1p): binds
B1: GST-Nup116(165–715)p (domain or fragment, S. cerevisiae, UniProt Q02630 165-715, looked up)
chain: RKFGTSQNGTGTTFNNPQGTTNTGFGIMGNNNSTTSATTGGLFGQKPATGMFGTGTGSGGGFGSGATNSTGLFGSSTNLSGNSAFGANKPATSGGLFGNTTNNPTNGTNNTGLFGQQNSNTNGGLFGQQQNSFGANNVSNGGAFGQVNRGAFPQQQTQQGSGGIFGQSNANANGGAFGQQQGTGALFGAKPASGGLFGQSAGSKAFGMNTNPTGTTGGLFGQTNQQQSGGGLFGQQQNSNAGGLFGQNNQSQNQSGLFGQQNSSNAFGQPQQQGGLFGSKPAGGLFGQQQGASTFASGNAQNNSIFGQNNQQQQSTGGLFGQQNNQSQSQPGGLFGQTNQNNNQPFGQNGLQQPQQNNSLFGAKPTGFGNTSLFSNSTTNQSNGISGNNLQQQSGGLFQNKQQPASGGLFGSKPSNTVGGGLFGNNQVANQNNPASTSGGLFGSKPATGSLFGGTNSTAPNASSGGIFGSNNASNTAATTNSTGLFGNKPVGAGASTSAGGLFGNNNNSSLNNSNGSTGLFGSNNTSQSTNAGGLFQNNTSTNTSGGGLFS
notes: Cloned into pGEX-4T-2; also called Nup116p; source: DH5α, purified (Glutathione Sepharose, NAP-10 desalting)
